The target in this experiment is CD20 cell surface antigen (human) (UniProt P11836). The experiment can be described thus: flow cytometry of FAM-ODN fluorescence on Raji cells. (In general: In flow cytometry, cells or beads pass a laser one at a time.)
Chain of UniProt P11836 (P11836 whole entry): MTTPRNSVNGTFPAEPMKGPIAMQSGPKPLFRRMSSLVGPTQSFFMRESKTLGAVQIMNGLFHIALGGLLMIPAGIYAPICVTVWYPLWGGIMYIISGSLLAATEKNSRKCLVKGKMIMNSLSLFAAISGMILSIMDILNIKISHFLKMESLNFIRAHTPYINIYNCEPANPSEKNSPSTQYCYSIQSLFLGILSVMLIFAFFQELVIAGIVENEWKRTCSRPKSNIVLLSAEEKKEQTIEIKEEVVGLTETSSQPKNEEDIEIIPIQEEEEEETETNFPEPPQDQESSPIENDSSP

As to “Rituximab (anti-CD20 antibody) conjugated cationic immunoliposomes”, the fold fluorescence intensity of FAM-ODN against FAM-ODN loaded LP and Her ILP turned out to be 10 fold; the fold fluorescence intensity of FAM-ODN against free FAM-ODN is 20 fold.

The values are drawn from patent US20110038941A1.
